Data as given in PMC9418451.

Key:
SecYEG G297LBT = SecYEG G297LBT (UniProt P0AGA2); assay: FRET or BRET
SecYEG = SecYEG (UniProt P0AGA2); assay: high-speed atomic force microscopy

## SecA(N95) K797C labeled with Atto488 (from UniProt P10408 1-901) (natural protein)
SecYEG G297LBT
  occupancy of SecYEG molecules by SecA: 10%

## SecA (from UniProt P10408 1-901) (natural protein)
SecYEG
  Kd: 10 nM
  tau off (time constant of the periods in which SecA was bound): 1.1 s
  tau on (time constant of the unbound periods until SecA rebinds): 1.7 s
